Test results taken from the supplement of paper PMC7125110.
± gives the standard error. For some of these results: Fewer inactive variants are shown than the library holds.

B1: glmS ribozyme (parent)
chain: AUAAAAGCGCCAGAACUACAGAAAUGUAGUUGACGAGGAGGAGGUUUAUCGAAUUUUCGGCGGAUGCCUCCAAA

Legend:
Settings in all cases: with glucosamine-6-phosphate
glucosamine-6-phosphate [1] = variants of: B1; experiment: kcat; higher = faster cleavage; RNA array
In short: (§1)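 Using a hybridised Cy3 probe at 37 °C, barcoded ribozyme variants transcribed in situ by E. coli RNA polymerase on sequenced MiSeq chips were monitored across tiles imaged over ~14 h. The flow contained glucosamine-6-phosphate from 40 μM to 10 mM in HEPES/KCl/Mg(OAc)2 buffer. Signals were normalised to baseline and to non-cleaving reference variants before per-tile medians were fit to one- or two-exponential decays to yield kobs. Weighted Michaelis–Menten fits across concentrations gave kcat and KM.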

glucosamine-6-phosphate [2] = variants of: B1; experiment: KM; higher = weaker cofactor use; RNA array
In short: as §1

glucosamine-6-phosphate [3] = variants of: B1; experiment: self-cleavage kobs at 640 uM GlcN6P; higher = faster cleavage; RNA array
In short: as §1

glucosamine-6-phosphate [4] = variants of: B1; experiment: self-cleavage kobs at 2500 uM GlcN6P; higher = faster cleavage; RNA array
In short: as §1

glucosamine-6-phosphate [5] = variants of: B1; experiment: self-cleavage kobs at 10000 uM GlcN6P; higher = faster cleavage; RNA array
In short: as §1

glucosamine-6-phosphate [6] = variants of: B1; experiment: self-cleavage kobs at 40 uM GlcN6P; higher = faster cleavage; RNA array
In short: as §1

glucosamine-6-phosphate [7] = variants of: B1; experiment: self-cleavage kobs at 160 uM GlcN6P; higher = faster cleavage; RNA array
In short: as §1

Variant	kcat (glucosamine-6-phosphate [1]) [s⁻¹]	KM (glucosamine-6-phosphate [2]) [µM]	self-cleavage kobs at 640 uM GlcN6P (glucosamine-6-phosphate [3]) [s⁻¹]	self-cleavage kobs at 2500 uM GlcN6P (glucosamine-6-phosphate [4]) [s⁻¹]	self-cleavage kobs at 10000 uM GlcN6P (glucosamine-6-phosphate [5]) [s⁻¹]	self-cleavage kobs at 40 uM GlcN6P (glucosamine-6-phosphate [6]) [s⁻¹]	self-cleavage kobs at 160 uM GlcN6P (glucosamine-6-phosphate [7]) [s⁻¹]
AUAAAAGCGCCAGAACUACAGAAAUGUAGUUGCCGAGGAGGAGGUUUAUCGAACUUUCGGCGGAUGCCUCCAAA [A33C U54C]	0.00039 ± 4.2e-05	1950 ± 360	0.0001 ± 1.7e-05	0.000217 ± 3.9e-05	0.000325 ± 9.2e-05	–	–
AUAAAAGCGCCAGAACUACAGAAAUGUAGUUGGCGAGCAGGAGGUUUAUCGAAUUUUCGGCGGAUGCCUCCAAA [A33G G38C]	< 1e-05	–	–	–	–	< 1e-05	< 1e-05
AUAAAAGCGCCAGAACUACAGAAAUGUAGUUGUCGAGGAGGAGGUUUAUCGAGUUUUCGGCGGAUGCCUUCAAA [A33U A53G C70U]	0.000178 ± 1.5e-05	–	–	–	5.75e-05 ± 9.2e-06	–	–
AUAAAAGCGCCAGAACUACAGAAAUGUAGUUGGCGAGGAGGAGGUUUAUCGAAUUUUCGGCGCAUGCCUCCAAA [A33G G63C]	< 1e-05	–	< 1e-05	–	–	< 1e-05	–
AUAAAAGCGCCAGAACUACAGAAAUGUAGUUGCCGAGGAGGAGGUGUAUCGAAUUUUCGGCGGAUGCCUCCAAA [A33C U46G]	9.24e-05 ± 1.2e-05	1050 ± 490	2.94e-05 ± 1.3e-05	8.65e-05 ± 2.1e-05	7.98e-05 ± 1.3e-05	–	–
AUAAAAGCGCCAGAACUACAGAAAUGUAGUUGGCGAGGAGGAGGUUUAUCGAAUUUUGGGCGGAUGCCUCCAAA [A33G C58G]	< 1e-05	–	–	–	< 1e-05	–	–
AUAAAAGCGCCAGAACUACAGAAAUGUAGUUGCCGAGGAGGAGGUUUAUCGAAUUUUCGGAGGAUGCCUCCAAA [A33C C61A]	< 1e-05	–	–	–	< 1e-05	–	–
AUAAAAGCGCCAGAACUACAGAAAUGUAGUUGUCGAGGAGGAGGUUUAUCGGAUUUUCGGCGGAUGCCUCCAAA [A33U A52G]	3.65e-05 ± 1.3e-05	–	–	–	1.94e-05 ± 7.9e-06	–	–
AUAAAAGCGCCAGAACUACAGAAAUGUAGUUGUCGAGGAGGAGGUUUAUCGUAUUUUCGGCGGAUGCCUCCAAA [A33U A52U]	1.29e-05 ± 2.5e-06	8300 ± 3400	–	–	–	–	–
AUAAAAGCGCCAGAACUACAGAAAUGUAGUUGUCGAGGGGGAGGUUUAUCGAAUUUUCGGCGGAUGCCUCCAAA [A33U A39G]	0.00016 ± 3.8e-05	–	–	6.65e-05 ± 2.8e-05	0.000108 ± 1.3e-05	–	< 1e-05
AUAAAAGCGCCAGAACUACAGAAAUGUAGUUGUCGAGGUGGAGGUUUAUCGAAUUUUCGGCGGAUGCCUCCAAA [A33U A39U]	5.86e-05 ± 3e-06	4820 ± 620	–	2.03e-05 ± 6.2e-06	3.95e-05 ± 5.5e-06	–	< 1e-05
AUAAAAGCGCCAGAACUACAGAAAUGUAGUUGCCGAGGAGGAGGUUUAUCGAAUUUUCUGCGGAUGCCUCCAAA [A33C G59U]	< 1e-05	–	–	–	< 1e-05	–	< 1e-05
AUAAAAGCGCCAGAACUACAGAAAUGUAGUUGCCGAGGAGGAGGUUUAUCGAAUUUACGGCGGAUGCCUCCAAA [A33C U57A]	2.16e-05 ± 4.2e-06	–	–	–	–	–	–
AUAAAAGCGCCAGAACUACAGAAAUGUAGUUGGCGAGGAGGAGGUUUAUCGAAUUUUCGGCGGGUGCCUCCAAA [A33G A64G]	< 1e-05	484 ± 28	–	–	< 1e-05	< 1e-05	–
AUAAAAGCGCCAGAACUACAGAAAUGUAGUUGCCGAGGAGGAGGUUUAUCGAAUGUUCGGCGGAUGCCUCCAAA [A33C U55G]	0.000433 ± 0.00012	2970 ± 1400	9.32e-05 ± 1.6e-05	0.000163 ± 2.8e-05	0.000384 ± 6.3e-05	–	–
AUAAAAGCGCCAGAACUACAGAAAUGUAGUUGCCGAGGAGGAGGUUUAUCGAAUAUUCGGCGGAUGCCUCCAAA [A33C U55A]	0.000974 ± 0.00015	3160 ± 940	0.000183 ± 3.5e-05	0.000519 ± 9.2e-05	0.000717 ± 7.8e-05	–	3.03e-05 ± 1.4e-05
AUAAAAGCGCCAGAACUACAGAAAUGUAGUUGCCGAGGAGGAGGAUUAUCGAAUUUUCGGCGGAUGCCUCCAAA [A33C U45A]	0.000472 ± 1.3e-05	3500 ± 180	7.41e-05 ± 1.9e-05	0.000197 ± 2.9e-05	0.00035 ± 5.3e-05	–	–
AUAAAAGCGCCAGAACUACAGAAAUGUAGUUGGCGAGGAGGAGGUUUAUGGAAUUUUCGGCGGAUGCCUCCAAA [A33G C50G]	0.000122 ± 3.3e-05	–	0.000161 ± 2.3e-05	0.000102 ± 1.6e-05	–	–	7.8e-05 ± 1.6e-05
AUAAAAGCGCCAGAACUACAGAAAUGUAGUUGUCGAGGAGGAGGUUUAUCGAUUUUUCGGCGGAUGCCUCCAAA [A33U A53U]	4.9e-05 ± 3.4e-06	2490 ± 550	–	2.34e-05 ± 1e-05	3.95e-05 ± 9.4e-06	< 1e-05	< 1e-05
AUAAAAGCGCCAGAACUACAGAAAUGUAGUUGCCGAGGAGUAGGUUUAUCGAAUUUUCGGCGGAUGCCUCCAAA [A33C G41U]	< 1e-05	–	< 1e-05	–	–	–	–
AUAAAAGCGCCAGAACUACAGAAAUGUAGUUGCCGAGGAGGAGGUUUAUCGAUUUUUCGGCGGAUGCCUCCAAA [A33C A53U]	0.000206 ± 3.2e-05	–	7.53e-05 ± 1.6e-05	0.000246 ± 5.8e-05	0.000182 ± 1.9e-05	–	–
AUAAAAGCGCCAGAACUACAGAAAUGUAGUUGGCGAGGAGGAGGUUUACCGAAUUUACGGCGGAUGCCUCCAAA [A33G U49C U57A]	2.2e-05 ± 2.7e-06	–	–	–	–	–	–
